# Patent publication US20090074756A1 (published 2009)
# B1: LLT1-Fc-ProteinA-biotin-Streptavidin-APC multimer (Fc fusion)
# chain: RANCHQEPSVCLQAACPESWIGFQRKCFYFSDDTKNWTSSQRFCDSQDADLAQVESFQELNFLLRYKGPSDHWIGLSREQGQPWKWINGTEWTRQFPILGAGECAYLNDKGASSARHYTERKWICSKSDIHV
# notes: also called LLT1-multimer; LLT1 multimer; not shown: Fc portion of human IgG1
# Tests used:
# [1] = biological target: T1, human LLT1 (Lectin-like transcript 1), full length (human, UniProt Q9UHP7 1-191); test: flow cytometry, LLT1 multimer on LLT1-transfected HEK293T cells
# T1 construct: Expressed on transfected HEK293T, Hela, C1R and P815 cells; The background says LLT1 is a homodimer on the cell surface; also called LLT1-pIRES2-EGFP transfected HEK293T cells
# T1 sequence: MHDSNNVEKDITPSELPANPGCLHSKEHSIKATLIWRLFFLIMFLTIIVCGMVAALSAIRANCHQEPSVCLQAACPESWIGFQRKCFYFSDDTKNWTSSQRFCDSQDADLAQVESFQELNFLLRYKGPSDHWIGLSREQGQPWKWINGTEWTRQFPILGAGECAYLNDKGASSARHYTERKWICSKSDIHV
# Procedure: (§1) Flow cytometry using the LLT1-Fc-ProteinA-biotin-Streptavidin-APC multimer (LLT1-multimer) was performed to identify the receptor of LLT1.
# human CD161 (NKR-P1A) = biological target: T2, human CD161 (NKR-P1A) (human, UniProt Q12918 1-225); test: flow cytometry, LLT1-Fc multimer on CD161-transfected HEK293T cells
# T2 construct: Native on polyclonal human NK and T cells in the staining and functional assays; The background calls CD161 a disulfide-bond homodimer; also called CD161 receptor; CD161-pIRES2-EGFP transfected HEK293T cells
# T2 sequence: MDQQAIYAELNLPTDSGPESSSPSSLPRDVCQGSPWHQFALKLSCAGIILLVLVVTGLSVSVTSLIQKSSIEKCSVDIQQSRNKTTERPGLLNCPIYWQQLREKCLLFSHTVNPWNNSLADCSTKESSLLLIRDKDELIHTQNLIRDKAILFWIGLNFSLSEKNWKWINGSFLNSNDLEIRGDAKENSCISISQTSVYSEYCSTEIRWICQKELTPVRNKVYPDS
# Procedure: as §1
binder,measurement,setting,value
B1,binding result,[1],no binding
same,binding result,human CD161 (NKR-P1A),binds
